In paper PMC8248744, “High-resolution genetic mapping reveals cis-regulatory and copy number variation in loci associated with cytochrome P450-mediated detoxification in a generalist arthropod pest” (PLoS Genetics, 2021) one finds Km data, which are given here for one protein.

Substrate in this data set: COC(c1ccc(NC(=O)c2c(C)nn(C)c2C)cc1CC(C)C)(C(F)(F)F)C(F)(F)F
Briefly: HPLC-UV substrate depletion, recombinant membranes. Particulars: NADPH-regenerating system, 0.2 M Tris-HCl pH 7.4, 0.25 mM MgCl2, 2.5% acetonitrile, 30°C, N-demethylation at pyrazole, co-expressed with TuCPR. It counts as biochemical, Tetranychus urticae.

B1: CYP392A16 (Tetranychus urticae) (protein)
chain: MIEVIHSGSIPDGHFTVSTIMFLISNLLSSQPLVNSLIGLALFWLVKYLFNTIQRIRSLPAGPWGLPIVGYLPFIKDDIYLVFDQLSKKYGPVYSLKLGSFDVVLVCDWPHMKDAVANDALLARQHEVFFPGVVEGRSFAEMSGDPWREHRRLSLHILRDVGLGKSTIETLVKEEVDQFLSALENNGKPADFEKCISRSVTNNVSILLFGHKYERDDPTAIAISSANTEVGRSFSFAGVVAFLPWLAELVFKFELFNVTRLKKCFQIVDTHIQDEIVKHQEKNSQEVVDYIDGYLVEKKNREKQNKVDDNFTIEILRRNAGAFYGAGTETVSSTMEWIMVYLVKYPEYQDKIRSEIADVIGFERKPDYVDRNRMPFTMAFIHEIHRIGSVVANNLLRRAASDTKIGNYNIPKDTLVILNFWSVNRDPKLWPNPDEFDPTRFLTEDGSKVVKPPHLIPFSAGKRNCPGESLANVELFLYLVCMLQKYHVKVKPGTKISTEAIFGLSRRPSQLPTFIFEKISNSN
notes: E. coli BL21STAR membrane fraction; with NADPH--cytochrome P450 reductase
Regarding B1, the Km is 17.79 (± 3.29 SE) μM.
